Data set [1] concerns the molecule itself. As to the kind of experiment: SEC. A general note: Size exclusion chromatography separates by hydrodynamic size, large species first.
Data set [2] concerns the target full length human SLBP, unphosphorylated, untagged, co-expressed with hSLIP1 in E. coli (human, UniProt Q14493 1-270). Briefly: AUC.
Data set [3] concerns the molecule itself. Briefly: AUC.

Where a chain is given by its changes, count along the chain named. In names and notes the source's numbering stands.

B1: MIF4Gdb from Danio rerio (zebrafish orthologue of SLIP1) (natural protein, Danio rerio (zebrafish))
chain: ENSSKEDYKIQSFDLETQKLLKTALKDPGSVDLEKVSSVIVDQSLKDQVFSREAGRICYTIVQAEAKQTNGSVFRRNLLNRLQQEFKAREETRKRSTQEWVCLVSFICNIFDYLKVNNMPMVALVHPVYDCLFRLAQSDALKNEEEVDCLVLQLHRIGDQLEKMNVQLMDELFNLLRDGFLLQEDLSSMGRLLLLEILEFRAGGWKLSDTAQKYYYSEVTD
B1: the stoichiometry N (usually the number of molecules, sites or subunits per partner or assembly) in data set [1] came out at 2.

B2: human SLIP1, wild type, (His)6-tagged, co-expressed with hSLBP from pRSF-Duet (natural protein, UniProt A9UHW6 1-222, looked up)
chain: MGEPSREEYKIQSFDAETQQLLKTALKDPGAVDLEKVANVIVDHSLQDCVFSKEAGRMCYAIIQAESKQAGQSVFRRGLLNRLQQEYQAREQLRARSLQGWVCYVTFICNIFDYLRVNNMPMMALVNPVYDCLFRLAQPDSLSKEEEVDCLVLQLHRVGEQLEKMNGQRMDELFVLIRDGFLLPTGLSSLAQLLLLEIIEFRAAGWKTTPAAHKYYYSEVSD
B2: the Kd (in general, the concentration at which binding is half-saturated) in data set [2] was below 0.9 nM.

B3: R202A human SLIP1, (His)6-tagged, expressed alone from pET28a (natural protein, UniProt A9UHW6 1-222, looked up)
chain: B2 chain with R202A
For B3, the “stoichiometry N” value in data set [3] turned out to be 2.
